{"source": "patent US12661396B2", "about": "“Selective targeting of the TREML1/MD2 interaction by small peptide or protein and its use for vaccine adjuvants” (Ascendo Biotechnology, Inc., priority 2020, dated 2026)", "molecules": {"B1": {"name": "TREML1 ECD: human TREML1 extracellular domain, SEQ ID NO:1; recombinant, E. coli, polyhistidine tag at the N-terminus (protein)", "chain": "QGIVGSLPEVLQAPVGSSILVQCHYRLQDVKAQKVWCRFLPEGCQPLVSSAVDRRAPAGRRTFLTDLGGGLLQVEMVTLQEEDAGEYGCMVDGARGPQILHRVSLNILPPEEEEETHKIGSLAENAFSDPAGSANPLEPSQDEKSIP", "modifications": "N-terminal polyhistidine tag; homo sapiens", "notes": "recombinant, E. coli, polyhistidine tag at the N-terminus"}}, "key": {"[1]": {"molecular_target": "T1, CD14 (Homo sapiens, UniProt P08571)", "T1 sequence (P08571 20-345)": "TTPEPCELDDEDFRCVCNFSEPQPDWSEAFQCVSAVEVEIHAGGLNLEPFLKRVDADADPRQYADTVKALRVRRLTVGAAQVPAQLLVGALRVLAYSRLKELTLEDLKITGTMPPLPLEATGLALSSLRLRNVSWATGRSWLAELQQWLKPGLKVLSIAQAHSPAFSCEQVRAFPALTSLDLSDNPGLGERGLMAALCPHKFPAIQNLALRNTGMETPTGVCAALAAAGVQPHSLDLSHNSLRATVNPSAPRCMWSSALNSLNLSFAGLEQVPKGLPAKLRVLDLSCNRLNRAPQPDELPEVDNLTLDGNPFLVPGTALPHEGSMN", "assay": "Solid phase binding assay, TREML1 ECD to immobilized CD14", "conditions": "absorbance at 450 nm; FIG. 2", "method": "(§1) To identify potential binding partners of TREML1 ECD, we used solid phase binding assay to assess interactions between TREML1 ECD and candidate proteins. Briefly, various candidate proteins and BSA (as a negative control) were coated on a 96-well plate and TREML1 ECD at various concentrations were added to the wells. After binding and washing, an anti-TREML1 antibody conjugated with horse radish peroxidase (HRP) was added to each well. After washing, HRP substrate, TMB (3,3′,5,5′-tetramethylbenzidine), was added. After reaction, absorbance at 450 nm was measured to assess TREML1 binding.\n(§2) To investigate the protein-protein interactions. Recombinant TLR4 (5 ug/ml in PBS), MD2 (5 ug/ml in PBS), CD14 (5 ug/ml in PBS), and BSA (negative control) proteins were plated separately on 96-well plates and incubated overnight at 4 degrees Celsius. The blocking buffer (2% BSA in PBS) was added to avoid the nonspecific binding for 2 hr at room temperature. A serial diluted TREML1 ECD (2.5 ug/ml to 156 ng/ml, 2-fold dilutions) solutions were added and allowed to incubate at room temperature for 2 hr. Then, anti-TREML1 antibody (1 ug/ml in PBS) was added for 1 hr. Next, a secondary antibody with HRP labeling, anti-Rat IgG-HRP, was added to the plates and incubated for 30 minutes at room temperature. […] Absorbance at OD450/540 nm was measured with a microplate reader."}, "[2]": {"molecular_target": "TLR4 (Homo sapiens, UniProt O00206)", "sequence (O00206 24-839)": "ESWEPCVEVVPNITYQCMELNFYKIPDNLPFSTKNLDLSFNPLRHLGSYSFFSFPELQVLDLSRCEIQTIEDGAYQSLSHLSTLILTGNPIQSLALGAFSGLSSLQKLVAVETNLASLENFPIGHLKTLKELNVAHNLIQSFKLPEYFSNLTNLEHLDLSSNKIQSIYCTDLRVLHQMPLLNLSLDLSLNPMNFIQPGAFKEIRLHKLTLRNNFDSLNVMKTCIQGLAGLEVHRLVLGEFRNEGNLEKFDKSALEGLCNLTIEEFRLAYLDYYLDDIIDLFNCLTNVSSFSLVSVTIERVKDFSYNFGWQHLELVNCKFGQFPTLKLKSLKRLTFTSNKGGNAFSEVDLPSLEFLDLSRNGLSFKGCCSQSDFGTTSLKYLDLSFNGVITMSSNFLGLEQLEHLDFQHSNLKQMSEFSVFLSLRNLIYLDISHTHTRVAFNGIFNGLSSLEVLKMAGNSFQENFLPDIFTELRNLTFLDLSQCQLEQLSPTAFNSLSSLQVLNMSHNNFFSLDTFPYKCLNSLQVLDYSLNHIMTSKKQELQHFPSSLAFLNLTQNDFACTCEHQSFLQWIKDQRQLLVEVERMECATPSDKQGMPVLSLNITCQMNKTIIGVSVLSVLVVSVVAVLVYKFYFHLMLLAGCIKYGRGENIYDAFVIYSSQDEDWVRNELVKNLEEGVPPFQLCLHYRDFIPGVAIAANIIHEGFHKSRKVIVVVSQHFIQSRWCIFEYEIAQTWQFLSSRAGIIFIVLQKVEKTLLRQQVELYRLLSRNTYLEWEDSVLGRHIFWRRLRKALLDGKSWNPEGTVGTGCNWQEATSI", "assay": "Solid phase binding assay, TREML1 ECD to immobilized TLR4", "conditions": "absorbance at 450 nm; TREML1 ECD 2.5 ug/ml to 156 ng/ml; FIG. 2", "method": "as §1, §2"}, "[3]": {"system": "Human peripheral blood mononuclear cells (PBMCs)", "assay": "TLR agonist-induced TNF-α secretion in human PBMCs with or without TREML1 ECD", "type": "cell-based", "conditions": "human PBMCs pretreated with hTREML1 10, 5, 1 ug/ml for 30 min", "method": "Human peripheral blood samples from healthy volunteer donors were collected by venipuncture bled into ACD vacutainer tubes. Human peripheral blood mononuclear cells (PBMCs), which were separated from whole blood using Ficoll-Paque Plus (GE17-1440-03) according to the manufacturer's instructions. Human peripheral blood mononuclear cells (PBMCs) were pretreated with or without […]1 (10 ug/ml, 5 ug/ml and 1 ug/ml) and incubated for 30 min at 37° C. with 5% CO2. After treatments, cells were stimulated with TLR agonist, including R848 (InvivoGen #tlrl-r848) and ODN2395 (InvivoGen #tlrl-2395), and incubated at 37° C. with 5% CO2 for 18 hr. Supernatants of cell culture medium were collected for TNF-α measurements. Cell supernatants and plasma samples were harvested and stored at -80° C. Human TNFα concentrations were detected using TNF-α DuoSet ELISA kit (R&D #DY210) according to manufacturer's instructions. Signals were developed using 3,3',5,5'-tetramethylbenzidine and the absorbance of 450 nm was detected with a microplate reader."}, "[4]": {"system": "NF-κB", "assay": "NF-κB activation in THP1/XBlue/MD2/CD14 cells (SEAP reporter, QUANTI-Blue)", "type": "cell-based, human", "conditions": "FIG. 5A", "description": "(§3) In addition to the solid phase binding assays, the TREML1 ECD binding was further evaluated using THP1/XBlue/MD2/CD14 cells (InvivoGen, San Diego, USA), which express MD2 and CD14. These cells (InvivoGen, San Diego, USA) are derived from the human monocytic THP1 cell line and express an NF-κB- and AP-1-inducible secreted embryonic alkaline phosphatase (SEAP) reporter gene.\n(§4) To investigate the effects of anti-TLR4 antibody and anti-MD2 antibody on TREML1 ECD-triggered TLR response, THP1/XBlue/MD2/CD14 cells were pretreated with anti-TLR4 antibody, anti-MD2 antibody, or IgG control for the indicated groups and incubated for 15 minutes at 37° C., 5% CO2. After pretreatments, THP1/XBlue/MD2/CD14 cells were stimulated by TREML1 ECD (10 ug/ml) and seeded at a concentration of 1×10^6 cells/ml (200 ul per well) into wells of a 96-well plate for 18 hr at 37° C., 5% CO2. To determine the NF-κB activation, the supernatants of culture medium were collected and assessed with QUANTI-Blue™ reagent (InvivoGen) according to the manufacturer's instructions."}, "[5]": {"molecular_target": "T2, MD2 (Homo sapiens, UniProt Q9Y6Y9)", "T2 sequence (Q9Y6Y9 19-160)": "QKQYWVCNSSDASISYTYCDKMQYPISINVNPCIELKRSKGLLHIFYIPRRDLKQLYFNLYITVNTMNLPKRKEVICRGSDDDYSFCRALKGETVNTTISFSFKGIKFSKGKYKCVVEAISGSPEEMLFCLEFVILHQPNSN", "assay": "Solid phase binding assay, TREML1 ECD to immobilized MD2", "conditions": "absorbance at 450 nm; TREML1 ECD 2.5 ug/ml to 156 ng/ml; FIG. 2", "method": "as §1, §2"}, "[6]": {"system": "THP1/XBlue/MD2/CD14 cells", "assay": "TNF-α secretion by THP1/XBlue/MD2/CD14 monocytes (ELISA)", "type": "cell-based, human", "conditions": "FIG. 5B", "method": "as §4\nCell supernatants and plasma samples were harvested and stored at −80° C. Human TNFα concentrations were detected using TNF-α DuoSet ELISA kit (R&D #DY210) according to manufacturer's instructions. Signals were developed using 3,3′,5,5′-tetramethylbenzidine and the absorbance of 450 nm was detected with a microplate reader."}, "[7]": {"system": "THP1/XBlue/MD2/CD14 cells", "assay": "TREML1 ECD binding to THP1/XBlue/MD2/CD14 cells and antibody competition (flow cytometry)", "type": "cell-based", "conditions": "TREML1 ECD 10 ug/ml, 1 hour; AF647-anti-human TREML1 staining; FIG. 4", "description": "as §3\nTo investigate the effects of anti-TLR4 antibody (HTA125, BioLegend #312814) and anti-MD2 antibody (18H10, ThermoFisher #MA5-33351) on TREML1 ECD binding to THP1/XBlue/MD2/CD14 cells, cells were pretreated with anti-MD2 antibody, anti-TLR4 antibody, IgG control, or a combination for 15 min at 37° C. with 5% CO2. After antibodies treatments, cells were treated with TREML1 ECD (10 ug/ml) and incubated for 1 hours. Cells were washed with PBS containing 1% FBS and stained with AF647-anti-human TREML1 antibody, followed by flow cytometric analysis.\nThe cells were resuspended in PBS containing 1% FBS at a density of 2×10^6 cells/ml and non-specific bindings of Abs were blocked using Human Fc Block (BD Biosciences #564220) at room temperature for 10 min. AF647-anti-human TREML1 (clone 268420) (R&D #FAB2394R) antibody was used as a detection antibody of TREML1 binding to cell surface. […] Binding analysis was performed on a CytoFLEX Flow Cytometer (Beckman Coulter) and the collected data were analyzed using Kazula software."}}, "data": [{"molecule": "B1", "values": [{"measurement": "TREML1 ECD binding to immobilized CD14", "setting": "[1]", "result": "does not bind to CD14"}, {"measurement": "TREML1 ECD binding to immobilized TLR4", "setting": "[2]", "result": "binds MD2 and TLR4 in a concentration-dependent manner"}, {"measurement": "effect on R848 (TLR7/8)-induced TNF-α secretion", "setting": "[3]; FIG. 7A", "result": "enhanced in the presence of TREML1 ECD"}, {"measurement": "effect on ODN 2395 (TLR9)-induced TNF-α secretion", "setting": "[3]; FIG. 7B", "result": "enhanced in the presence of TREML1 ECD in a dose-dependent manner"}, {"measurement": "NF-κB activation in THP1/XBlue/MD2/CD14 monocytes", "setting": "[4]", "result": "induced activation of NF-κB"}, {"measurement": "TREML1 ECD binding to immobilized MD2", "setting": "[5]", "result": "binds MD2 and TLR4 in a concentration-dependent manner"}, {"measurement": "TNF-α secretion by THP1/XBlue/MD2/CD14 monocytes", "setting": "[6]", "result": "induces THP1/XBlue/MD2/CD14 monocyte activation"}, {"measurement": "binding to THP1/XBlue/MD2/CD14 cells", "setting": "[7]", "result": "can bind to the THP1/XBlue/MD2/CD14 cells"}]}]}
